Measurements reported in article doi:10.1101/2020.01.24.918722.

Assays:
[1] = target: mNrxn1β^+SS4-FLAG (C-terminally FLAG-tagged mouse Nrxn1β containing the SS4 insert) (mouse) (UniProt P0DI97); test: saturation binding on cells with Scatchard analysis
[2] = target: mNrxn1β^−SS4-FLAG (C-terminally FLAG-tagged mouse Nrxn1β lacking the SS4 insert) (mouse); test: as above

Sequence of mNrxn1β^+SS4-FLAG (C-terminally FLAG-tagged mouse Nrxn1β containing the SS4 insert) (mouse) (P0DI97 47-468): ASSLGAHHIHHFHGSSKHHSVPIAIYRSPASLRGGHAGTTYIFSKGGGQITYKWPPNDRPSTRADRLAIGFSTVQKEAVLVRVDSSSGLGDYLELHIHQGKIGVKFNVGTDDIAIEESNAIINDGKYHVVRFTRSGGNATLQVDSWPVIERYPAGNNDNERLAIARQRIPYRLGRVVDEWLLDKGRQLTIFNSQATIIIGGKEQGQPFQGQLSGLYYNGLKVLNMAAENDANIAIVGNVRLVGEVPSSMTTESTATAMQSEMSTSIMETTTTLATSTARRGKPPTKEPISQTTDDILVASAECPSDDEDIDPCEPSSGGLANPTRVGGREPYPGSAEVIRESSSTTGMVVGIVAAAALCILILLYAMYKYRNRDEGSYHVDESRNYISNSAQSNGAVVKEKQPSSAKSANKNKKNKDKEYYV

- Kd [1]: 51.4 nM
- Kd [2]: 106 nM
Substance: Ig-Clstn3 (Ig-fused calsyntenin-3) (from UniProt Q99JH7 20-956) (Fc fusion)
